The results in this text go back to paper PMC8196545 (Cell reports, 2021).

Numbering of substitutions follows the chain as printed.

For the assay, the target named is HIV-1 NL4-3 Env on infected cells (HIV-1 group M subtype B, NL4-3 (pNL4-3 …, strain)).

B1: c5373 (antibody, V domains shown)
VH: QVRLQESAPRVVKPSESLSLTCTVSGGSIFPFFYSWIRQAPGGGLQWIGRLYSNTGSSKSNPSLHLRVALSVDRSRNQVGLKMTSMTAADTGVYYCVRDIMREFDDFNGAGGVYGGVDIWGRGTAVTVSS
VL: QFVLTQPPSVSESPGKTISISCTRSSGTFARNSVHWYLQRPGSVPKTVIYDGNRRPSGIPGRFSASIDVSSGSASLTISGLTTEDEAEYYCQSFDGGNHVVFGGGTKVTVL
For the molecule B1, the binding result was “binds”.

B2: c5229 (antibody, V domains shown)
VH: QMQLQESGPRLVKPSETLTVTCSVSGGSMSHFHWSWIRQSAGKGLEWIGSVYGNSGSVRSNPSLHTRVAFSLGRGQISLNLKWATAADTAVYYCARELARDFDYNFGHGGSSFGIEVWGRGTLVTVSS
VL: NFILTQPHSVSGSPGKTVIISCTRSSGNIGDNSVQWYQQRPGTPPRTVISEKNKRPSGVPDRFSASIDTSSNSASLTISGLTTEDEADYYCQSCDSGNRLIFGGGTTLTVL
With B2, the binding result is “binds”.

B3: c5266 (antibody, V domains shown)
VH: QVRLQESGPGLVKPSETLSLTCSVSGASVTAYSWSWVRLSAERGLEWIGRILPTIGSNRSNPSLHMRVGMSADTSKNLLSLRLTSVTAADTATYFCARDLVRDYDSWGGDYSTFHGIDVWGQGITVTVSL
VL: NSLLTQPPSVSESPGKTVNISCTRTSGGITWDFVQWYQQRPGRAPAIVIYANDRRPSGVPDRFAGSIDSSSNSAALIISGLITEDEADYYCQSFHPRGHVVFGGGTKLTVL
Take B3: the binding result is recorded as “binds”.

B4: c5299 (antibody, V domains shown)
VH: QVRLLESGPGLVKPSGTLSLTCHVSGASVTSFSWSWVRQSAQKGLQWLGRILPTNGSNKSNPSLHPRVGLAADTSTNQLSLRLTSVTAADSGIYFCARDFVRDYDSWASDYSTLHGIDVWGPGTSVTVSF
VL: NSLLTQPPSVSESPGKTVTISCTRTSGDITWDFVQWYRHRPGTSPTLVIFANDRRASGVPDRFSGSIDSSSNTAALTISGLKTDDEADYYCQSFHPRYHVVFGGGTKLTVL
Turning to B4, the binding result is listed as “binds”.

B5: c10819 (antibody, V domains shown)
VH: EMRLEESGGALVKPGGSLRLSCVASGFKLSEWSLMWVRQAPGKGLQWVSSISLNQDYISYAGSVRGRFDVFRDRTQTSLLLNMNKLKTEDTGIYFCARVHAWRYFDWVNRRSPVEKVLSIDLWGRGTLVIVSS
VL: SGATQPPSVSVSKGETARITCSGVELSSQYVSWYRQRPGQSPVLVMFHNNSRASRIPERFSASDSGDTATLTIAGAQDVDEAEYYCQTWDSKNYVTFGGGTKLTVL
Consider B5, for which the binding result was “binds”.

B6: c24356 (antibody, V domains shown)
VH: QVQVVQSGAEVKQPGASVSVSCKVLGYTLSELSMHWVRQSPAKGLEWMAGFDPDANKEIYAQEFQGRVTLTHHFDTDTYFLELTSLRSDDTAVYYCATGERLAGNFLDWLHNFDYWGQGTLVTVSA
VL: EIVLTQSPATLSLSPGERATLSCRASQSIGNYLAWYQQRPGQAPRLLIHSTSNRATGIPVRFTGSGSGTDFTLTISSLEAEDFAVYYCQHRVNWPPGYTFGQGTKLDIK
Take B6: the binding result is on record as “binds”.

B7: c5358 (antibody, V domains shown)
VH: RLQLRESGPALVRPSETLSLTCTVSGGPTSDFFWSWVRQAAGGRLEWIGRIYASDGSTKMNPALHTRIGLELNTLENIFNLRLLSVTAADTAVYFCVREEVHGYDSWNSDSGTYNGIDAWGLGTPVTVSS
VL: SVVLTQPPSVSGSPGETVIISCTRSSGAIPSRHVQWYRQRPGGLPARVIFANSQRPHWVPDRYSASVDASSNTASLTISGLQPDDEAKYFCQSFDDTRHHHIVFGGGTEVIVV
As for B7, the binding result was “binds”.

B8: c27003 (antibody, V domains shown)
VH: QFQLVQSGAEVRSPGSSVTVSCKASGSTFHTYVLSWVRQAPGQGLEWMGGIIPIFATPKYAQKFQGRVTFTADEGTSTAYMDLRSLRPEDTAVYYCARSATGGTALVDYGDYEGDTFYHNHMDVWGAGTTVTVSS
VL: QSVLTQPPSASATPGQRVTISCSGRTSNVGSYAVSWYQQLPGTAPKLVIYSDDRRPSGVPDRFSGSKSGTSASLAISGLQSEDEADFYCAAWDDSLKTPVFGGGTKLTVL
In the case of B8, the binding result is recorded as “binds”.

B9: c807 (antibody, V domains shown)
VH: QVQLQESAPRLVTTSETLSLTCTVFGGQFYPFFYSWVRQSPGGKLQWIGRKYSSTGSMRTNPSLHTRVGMPLDHSKSQIGLTMSSMTAADTGIYYCVRDIMREFDSVDGSGGVYGGVDVWGRGTTVTVSS
VL: NFMLTQPPSVSESPGKTVTISCTRNSGSIASNSVYWYRQRPGSPPTTLIHDNNRRPTGVPDRFSASIDTSSNSASLTISSLKTEDEADYYCQSYDNGNHVIFGGGTNLLVL
As to B9, the binding result is on record as “binds”.

B10: c31993 (antibody, V domains shown)
VH: EVQLVQSGAEVKKPGESLKISCKCSGYTFSDHWIGWVRQRPEKGLEWMGIIFPDDSETRYSPSFEGQVTFSVDTASSTAYLLWNSLKPSDTATYYCARQESDEVRGARYDIWGQGTVVAVSS
VL: QSVLTQPPSVSGTPGQRVTISCSGSTSNVENNYVFWYQQLPGKAPELLIDGSNQRPSGVPDRFSGSKSGISASLAISGLRSEDEAYYYCAAWDESFVYLFGGGTKLTVL
Take B10: the binding result was “binds”.

B11: c10895 (antibody, V domains shown)
VH: QEQGIESVRAAVESGASLIISCPTSGFDFARYTMHWVRQAPGKGLEWVAVTSSQGEKKYYSEAVKGRFVITRNNFKRTLYLEMSSLKPEDAGVYYCARSQGYCGTYACYGYYYYMDVWVKGPTVIVSS
VL: QSVLTQPPSVSAAPGEKVAISCSGNTTNIEKNYVAWYQHVPETAPKLLIFENHKRPFGIPDRFSGSKSATSATLGISDLQTADEADYYCQTWDTKLHIWVFGGGTKLTVL
Turning to B11, the binding result is listed as “binds”.

B12: c26986 (antibody, V domains shown)
VH: QVHLVQSGAEVKKPGSSVKVSCKASGGSFNTNFITWVRQAPGQGLEWMGRIMPMFGTRNLAQRFQGRVTLSADTSSNSVYMELSSLTFGDTAVYFCAREAPAGGLDIWGQGTLVTVSS
VL: QIVLTQSPGTLSLSPGERATLSCRASQSLSSNYLAWYQQKPGQAPRLLIYGASSRATGIPDRFSGSGSGTDFTLTISRLEPEDFAVYYCQQYSTLFSFGPGTRVDIK
For the molecule B12, the binding result was “binds”.

B13: c26412 (antibody, V domains shown)
VH: EVRLVQSGGGVVRPGGSLRLSCSASGFSFSRSAMSWVRQAPGKELQWVAAISGSGNSHHISDAFRGRVSISRNNENDSVFLQMSNLRLDDTGKYFCAKSEGGRSGWYYWATEYFQHWGQGAVVTVSS
VL: SSELTQPPSVSVSPGQTARISCSGHTLPQRYATWYQQKPGRAPLLIIFGNNERPSGIPARFSVSASGKSAILTITGVQAEDEGDYICQSSDGSHTSLFFGGGTKLTVL
For the molecule B13, the binding result is listed as “binds”.

B14: c24118 (antibody, V domains shown)
VH: EVRLVESGGSLVQPGGSLRLSCSASGFSFSKSAMSWVRQAPGKELEWVAAISGSGNSHHISDAVRGRFSISRDNLGDSVFLQMYNLRVDDTAKYFCAKSEGGRSGWYYWATEYFQHWGQGAVVTVAS
VL: B13 VL with T26A, Q36R, R41Q, L44I, S62F, S69T, F98V
As for B14, the binding result is “binds”.

B15: c24103 (antibody, V domains shown)
VH: B14 VH with V5A, E6Q, S10G, E46Q, H58Q, F68L, G76D, Q82H, Y84N, D89E
VL: B13 VL with T26A, Q36R, R41Q, L44I, I47V, S69T, I71M, F98V
Consider B15, for which the binding result is given as “binds”.

B16: c5260 (antibody, V domains shown)
VH: QVRLQESGPRLVKPSETLSLTCTVSGASVTSYSWSWIRYSAERGLEWIGRILPTIGSNRANPSLHFRVGMSADTSKNLLSLRLTSLTAADTAIYFCARDLVRDYDSWGGDYSTFHGIDVWGQGTTVIVSL
VL: NSLLTQPPSVSESPGKTVNISCTRTSGAITWDFVQWYQKRPGSVPTVVIYANDRRPSGVPDRFSGSIDSSSNSAALTISRLKTEDEAEYYCQSFHPRSHVVFGGGTKLTVL
On to B16, for which the binding result is given as “binds”.

B17: c22681 (antibody, V domains shown)
VH: QIRLVESGGALVKPGGSLRLSCTASGFPFGHYYLSWVRQGPGRGLEWVAHISARSTTIVYADSVRGRFTISRDNDKRSLYLEMNDLRVDDTAMYYCARDSFKWTWEYFDAWGQGTRVSVSS
VL: QSVLTQPPSVSGAPGQTVAISCSGSTSNIGHNPVSWYRNVPGTAPRIIIFSDSQRPSGIPGRFSGSKSGTSASLVITDLQLEDEGDYYCAAWGGSLRGALFGGGTKVTVL
B17: the binding result was “binds”.

B18: c10969 (antibody, V domains shown)
VH: AGHLVESGGKLISPGGSLSLSCVASGFTFKNAHMTWVRQVPGKGLEWIALMKSHADGSHTDYSPSVRDRCAISRDDSTSSLFLHLYNLQLDDTGIYYCVHLSSPDEWGLGTAVTVSS
VL: HIVLTQSPVTLSGSQGDTVALSCRANQSLRSHLAWYQHRPGQTPKVLIYEVSRRRPATPPRFSGSGSGTEFTLVIRGLEPEDSAVYYCQQGDFWPFSFGQGTNLEIT
As to B18, the binding result is given as “binds”.

B19: c5331 (antibody, V domains shown)
VH: HVHLQESGPGLVKPSETLSVTCQVSGSPLSRYFWSWIRQPAGGGLEWIGRHYPSSGSNTASAALHTRITMSMDFRNNRLSLTLRSVTAADTAVYYCTRDVMRDFNDVNGSGGTFRGVEFWGRGTTVTVSS
VL: SFILTQPHAVSESPGKTVTISCTRSSGSIDTAYVHWYQQRPGRPPTTLIYDANQRPSGVPDRFSASVDSSSSSASLTISGLEAEDEAIYYCQSSDSGHRVVFGGGTELTVL
With B19, the binding result is “binds”.

B20: c5616 (antibody, V domains shown)
VH: LVRLAESGGGVVRPGESLTLSCATSGFSFSSYGMHWVRQIPGKGLEWVAVIWNDGSRRYYSDSVQGRFTIAKDTSNKTLSLHMRDLQVGDTAVYFCARAYGPQSEMDSWGLGTLVTVSS
VL: SSELTQPPSVSVSPGQTAILTCVGDILPRKHAYWYRQRAGRAPTLIVFGDNNRPSGIPARFSGFTSGTVATLVITAAQVDDGGDYFCYSADNSGNHRGVFGGGTRLTIL
Take B20: the binding result is given as “binds”.
